Assay results: article doi:10.1101/2024.06.17.599268 (bioRxiv, 2024)

B1: Rab8a_(1-176) (natural protein)
chain: MAKTYDYLFKLLLIGDSGVGKTCVLFRFSEDAFNSTFISTIGIDFKIRTIELDGKRIKLQIWDTAGQERFRTITTAYYRGAMGIMLVYDITNEKSFDNIRNWIRNIEEHASADVEKMILGNKCDVNDKRQVSKERGEKLALDYGIKFMETSAKANINVENAFFTLARDIKAKMDKK
B3: bMERB_(V978A_V985A) (domain or fragment)
chain: KEEEMKRFCKAQTIQRRLNEIEAALRELEAEGVKLELALRRQSSSPEQQKKLWVGQLLQLADKKNSLAAEEAELMITVQELNLEEKQWQLDQELRGYMNREENLKTAADRQAEDQVLRKLVDLVNQRDALIRFQEERRLSELALGTGAQG

Tests used:
bMERB_(M992A_I993A) = molecular target: T1, bMERB_(M992A_I993A) (human, UniProt Q8TDZ2 918-1067, M992A | I993A); assay: ITC
T1 sequence: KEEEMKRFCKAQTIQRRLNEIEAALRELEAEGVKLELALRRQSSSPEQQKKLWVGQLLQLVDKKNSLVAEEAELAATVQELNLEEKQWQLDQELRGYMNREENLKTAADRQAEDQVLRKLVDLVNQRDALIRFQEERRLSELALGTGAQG

[1] = molecular target: T2, Mical1 bMERB domain (residues 918-1067) (human, UniProt Q8TDZ2 918-1067); assay: ITC
T2 sequence: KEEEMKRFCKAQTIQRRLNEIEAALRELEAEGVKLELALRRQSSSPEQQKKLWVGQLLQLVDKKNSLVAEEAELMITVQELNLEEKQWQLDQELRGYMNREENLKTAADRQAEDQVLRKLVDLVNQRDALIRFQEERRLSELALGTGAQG

bMERB_(V978A_V985A) = molecular target: B3; assay: ITC
bMERB_(L1047A_F1050A) = molecular target: T3, bMERB_(L1047A_F1050A) (human, UniProt Q8TDZ2 918-1067, L1047A | F1050A); assay: ITC
T3 sequence: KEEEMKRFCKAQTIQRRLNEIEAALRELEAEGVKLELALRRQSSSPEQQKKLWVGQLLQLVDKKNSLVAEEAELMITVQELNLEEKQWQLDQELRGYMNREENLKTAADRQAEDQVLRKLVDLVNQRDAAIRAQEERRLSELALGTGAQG

full-length Mical1 = molecular target: T4, full-length Mical1 (human, UniProt Q8TDZ2 1-1067); assay: ITC
T4 sequence: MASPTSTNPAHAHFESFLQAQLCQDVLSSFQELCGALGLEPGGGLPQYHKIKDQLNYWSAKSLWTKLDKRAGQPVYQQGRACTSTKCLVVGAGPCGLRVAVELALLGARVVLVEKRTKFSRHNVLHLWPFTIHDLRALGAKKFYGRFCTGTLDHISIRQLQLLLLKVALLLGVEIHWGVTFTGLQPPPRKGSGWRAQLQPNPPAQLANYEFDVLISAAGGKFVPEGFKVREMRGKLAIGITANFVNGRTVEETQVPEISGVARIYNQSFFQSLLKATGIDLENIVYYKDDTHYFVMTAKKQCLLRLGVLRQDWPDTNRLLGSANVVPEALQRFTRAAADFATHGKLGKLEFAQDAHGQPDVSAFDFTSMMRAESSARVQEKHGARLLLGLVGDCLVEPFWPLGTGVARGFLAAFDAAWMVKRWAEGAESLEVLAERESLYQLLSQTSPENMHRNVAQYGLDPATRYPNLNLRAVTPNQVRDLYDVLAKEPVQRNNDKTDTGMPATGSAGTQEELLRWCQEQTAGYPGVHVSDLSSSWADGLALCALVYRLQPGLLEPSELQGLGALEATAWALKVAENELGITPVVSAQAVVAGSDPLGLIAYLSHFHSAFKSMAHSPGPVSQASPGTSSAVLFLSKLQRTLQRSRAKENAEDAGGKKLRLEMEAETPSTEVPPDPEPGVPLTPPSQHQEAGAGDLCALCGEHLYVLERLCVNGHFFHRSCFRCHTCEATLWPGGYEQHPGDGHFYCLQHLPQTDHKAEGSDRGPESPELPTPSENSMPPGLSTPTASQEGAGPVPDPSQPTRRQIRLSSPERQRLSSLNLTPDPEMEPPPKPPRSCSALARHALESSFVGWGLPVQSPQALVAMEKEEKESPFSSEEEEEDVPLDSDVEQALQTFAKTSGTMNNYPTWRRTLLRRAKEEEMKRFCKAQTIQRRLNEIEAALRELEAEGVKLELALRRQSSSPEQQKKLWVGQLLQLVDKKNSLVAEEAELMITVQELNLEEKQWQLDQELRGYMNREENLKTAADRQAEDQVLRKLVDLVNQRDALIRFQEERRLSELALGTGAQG

Rab10_(1-175) [2] = molecular target: T5, Rab10_(1-175) (human, UniProt P61026 1-175); assay: ITC
T5 sequence: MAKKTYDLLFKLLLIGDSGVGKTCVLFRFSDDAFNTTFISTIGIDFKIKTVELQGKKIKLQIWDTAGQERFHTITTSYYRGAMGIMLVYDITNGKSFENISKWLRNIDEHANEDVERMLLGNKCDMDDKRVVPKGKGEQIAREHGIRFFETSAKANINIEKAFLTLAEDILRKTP

Rab8a_(1-176) [3] = molecular target: B1; assay: ITC
Rab15_(1-176) [4] = molecular target: T6, Rab15_(1-176) (human, UniProt P59190 1-176); assay: ITC
T6 sequence: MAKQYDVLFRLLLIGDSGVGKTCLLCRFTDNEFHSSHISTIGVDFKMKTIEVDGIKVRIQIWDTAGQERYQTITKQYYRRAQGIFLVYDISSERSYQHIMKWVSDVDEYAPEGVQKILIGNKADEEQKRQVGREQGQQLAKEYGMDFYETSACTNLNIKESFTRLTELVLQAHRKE

[5] = molecular target: T7, Mical1 MO-CH-LIM (residues 1-781) (human, UniProt Q8TDZ2 1-781); assay: ITC
T7 sequence: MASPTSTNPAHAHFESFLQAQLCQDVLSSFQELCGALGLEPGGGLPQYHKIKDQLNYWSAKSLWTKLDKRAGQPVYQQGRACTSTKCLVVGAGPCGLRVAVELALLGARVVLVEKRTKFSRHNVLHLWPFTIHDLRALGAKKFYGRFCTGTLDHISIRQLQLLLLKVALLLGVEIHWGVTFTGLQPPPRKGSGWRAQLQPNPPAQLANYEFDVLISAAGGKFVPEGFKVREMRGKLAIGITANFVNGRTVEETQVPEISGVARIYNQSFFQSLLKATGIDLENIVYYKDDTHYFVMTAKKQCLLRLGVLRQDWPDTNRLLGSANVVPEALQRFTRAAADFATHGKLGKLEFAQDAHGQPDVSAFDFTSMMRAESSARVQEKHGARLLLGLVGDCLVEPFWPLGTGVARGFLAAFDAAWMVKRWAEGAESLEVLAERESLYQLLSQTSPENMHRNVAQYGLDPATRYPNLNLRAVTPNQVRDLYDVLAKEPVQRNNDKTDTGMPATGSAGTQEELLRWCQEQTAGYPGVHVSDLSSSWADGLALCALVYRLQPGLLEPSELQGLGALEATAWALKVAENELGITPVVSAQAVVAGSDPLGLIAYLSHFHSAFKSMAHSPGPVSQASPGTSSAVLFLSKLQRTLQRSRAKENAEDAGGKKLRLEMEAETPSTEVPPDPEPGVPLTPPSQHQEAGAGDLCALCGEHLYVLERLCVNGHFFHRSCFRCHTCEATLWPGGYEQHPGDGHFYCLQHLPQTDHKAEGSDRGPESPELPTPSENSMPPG

Rab10_(1-175) [6] = molecular target: T5, Rab10_(1-175); assay: SEC
Rab8a_(1-176) [7] = molecular target: B1; assay: SEC
Rab15_(1-176) [8] = molecular target: T6, Rab15_(1-176); assay: SEC
Rab13_(1-176) = molecular target: T8, Rab13_(1-176) (human, UniProt P51153 1-176); assay: SEC
T8 sequence: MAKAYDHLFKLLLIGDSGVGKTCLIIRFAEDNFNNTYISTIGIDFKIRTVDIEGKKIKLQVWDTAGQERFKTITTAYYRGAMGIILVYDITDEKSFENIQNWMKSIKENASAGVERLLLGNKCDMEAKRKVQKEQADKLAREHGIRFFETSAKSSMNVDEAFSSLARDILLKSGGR

In the case of B1, the “fold decrease in N-terminal (Nt-RBS1) Rab binding against wild-type bMERB” value (bMERB_(M992A_I993A)) is reported as over 30 fold, the “stoichiometry N” value [1] is reported as 2 and the “stoichiometry N” value (bMERB_(V978A_V985A)) is reported as 1. The “fold decrease in C-terminal (Ct-RBS2) Rab8 binding against wild-type bMERB” value (bMERB_(L1047A_F1050A)) was over 20 fold, the “fold decrease in N-terminal (Nt-RBS1) Rab binding against wild-type bMERB” value (bMERB_(L1047A_F1050A)) was 10 fold and the “stoichiometry N” value (full-length Mical1) was 2.

B2: bMERB_(S960D) (domain or fragment)
chain: KEEEMKRFCKAQTIQRRLNEIEAALRELEAEGVKLELALRRQDSSPEQQKKLWVGQLLQLVDKKNSLVAEEAELMITVQELNLEEKQWQLDQELRGYMNREENLKTAADRQAEDQVLRKLVDLVNQRDALIRFQEERRLSELALGTGAQG
B2: binds (Rab10_(1-175) [2]); binds (Rab8a_(1-176) [3]); binds (Rab15_(1-176) [4]). B2: binds [5].

B3: binds (Rab10_(1-175) [6]); binds (Rab8a_(1-176) [7]); binds (Rab15_(1-176) [8]). B3: binds (Rab13_(1-176)).
